Reference: the supplement of paper PMC10065799, “High-throughput profiling of sequence recognition by tyrosine kinases and SH2 domains using bacterial peptide display” (eLife, 2023)

System: Fer (mouse);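 further: 11-residue human phosphosite peptides and single-mutation variants displayed on the E. coli surface, counted by deep sequencing, each peptide's frequency after selection divided by its frequency in the unselected input library; frequency after pTyr selection over input frequency; kinase dosed for 20-30% of maximal phosphorylation in three min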
Experiment: phosphorylation enrichment, bacterial display (enrichment ratio); higher = better substrate or ligand; peptides without Tyr show the background
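Wherever SH2 binding enrichment of the phosphorylated peptide, bacterial display is given: peptide library displayed on the E. coli surface as eCPX fusions, selected cells deep-sequenced, score is each peptide's frequency after selection divided by its frequency in the input.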

First: PLEGKYEWQEV [CDKN1B_Y74]
Second: AKVKPYVNGTS [IBTK_Y1064]
The phosphorylation enrichment of the first is higher: 0.613 for the first, 0.461 for the second.

First: NLTVNYKKNLT [SQOR_Y259_I264T]
Second: LHAALYERKLL [TTLL5_Y542]
The phosphorylation enrichment of the first is lower: 0.503 for the first, 0.63 for the second.

Going from TGSFTYEAVEL [MTMR14_Y462] to VHNLDYYKKTT [FGFR3_Y647], the phosphorylation enrichment falls from 13.1 to 0.394.

Going from HLELNYKEDEF [MME_Y502_Y497H_YF] to ATPSQYMTFLH [DYNC2H1_Y2872_R2871Q], the phosphorylation enrichment falls from 0.64 to 0.541.

Compared with FNVLQYVVPEV [EIF3A_Y382], LDLSFYHTSSS [EMD_Y182_P183H_YF] is lower in phosphorylation enrichment: 0.701 for the first, 0.423 for the second.

First: PLFGEYFTLQI [TP53_Y327_D324Y_YF]
Second: DMGAQYAAASP [ARID1B_Y483]
The phosphorylation enrichment of the first is higher: 1.49 for the first, 0.652 for the second.

First: AAVDTYCRHNY [HLA-DRB1_Y107]
Second: IRKDLYANNVM [ACTA1_Y296]
The phosphorylation enrichment of the first is higher: 0.442 for the first, 0.436 for the second.

First: SPPILYSFFLD [FCRL6_Y239_YF]
Second: SARFRYLVAEK [LDHB_Y173_M175V]
The phosphorylation enrichment of the first is higher: 1.84 for the first, 0.447 for the second.

First: CEHRGHLYLAI [TEK_Y897_Y897H]
Second: MSFDRYMAICH [OR2A5_Y123_YF]
The phosphorylation enrichment of the first is lower: 0.537 for the first, 0.557 for the second.

Compared with DYYDLYGGQKF [PTPN11_Y66_E69Q], YIGVTYKNEED [PDGFRA_Y993] is lower in phosphorylation enrichment: 2.32 for the first, 0.555 for the second.

Going from EKQLLYLENKT [FRK_Y132_S133L] to NIQKKYYRAIL [CHD7_Y1217], the phosphorylation enrichment rises from 0.405 to 0.533.

Compared with AGQEDYDRLRS [RHOA_Y66_P71S], WCSNDYLGMSR [ALAS2_Y199] is lower in phosphorylation enrichment: 0.795 for the first, 0.5 for the second.

Going from TVLWRYTGTRP [UGT1A1_Y337] to FQGGTYSKAST [FGG_Y380_YF], the phosphorylation enrichment falls from 0.423 to 0.325.

Compared with SAGSSYSISGI [PAX5_Y179], ICGVSYDEFRF [CFTR_Y512_F508C_YF] is higher in phosphorylation enrichment: 0.419 for the first, 1.17 for the second.

Going from VTAVAYRLAEQ [HK1_Y461] to RPPELYALMSD [ZAP70_Y569_C564R], the phosphorylation enrichment rises from 0.446 to 1.17.

Compared with KRAIGHFSATS [FAM120A_Y327_Y327H_YF], CTTIDYNFMCN [TP53_Y234_H233D_YF] is higher in phosphorylation enrichment: 0.338 for the first, 0.597 for the second.

KLVQLYVVCTK [BTK_Y461_G462V] was tested, and the phosphorylation enrichment was 0.584.

Molecular target: Grb2 SH2 (UniProt P62993)
Experiment: SH2 binding enrichment of the phosphorylated peptide, bacterial display (enrichment ratio); higher = better substrate or ligand; peptides without Tyr show the background

Chain of Grb2 SH2 (P62993 whole entry, looked up): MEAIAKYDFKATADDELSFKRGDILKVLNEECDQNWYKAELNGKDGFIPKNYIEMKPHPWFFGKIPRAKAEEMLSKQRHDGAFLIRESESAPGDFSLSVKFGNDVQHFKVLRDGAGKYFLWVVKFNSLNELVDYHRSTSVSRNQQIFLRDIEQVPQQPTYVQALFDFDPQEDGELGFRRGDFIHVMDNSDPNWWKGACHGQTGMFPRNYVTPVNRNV

First: PLEGKYEWQEV [CDKN1B_Y74]
Second: AKVKPYVNGTS [IBTK_Y1064]
The SH2 binding enrichment of the first is lower: 0.675 for the first, 1.11 for the second.

First: NLTVNYKKNLT [SQOR_Y259_I264T]
Second: LHAALYERKLL [TTLL5_Y542]
The SH2 binding enrichment of the first is higher: 0.93 for the first, 0.621 for the second.

First: TGSFTYEAVEL [MTMR14_Y462]
Second: VHNLDYYKKTT [FGFR3_Y647]
The SH2 binding enrichment of the first is lower: 0.664 for the first, 0.796 for the second.

Going from HLELNYKEDEF [MME_Y502_Y497H_YF] to ATPSQYMTFLH [DYNC2H1_Y2872_R2871Q], the SH2 binding enrichment falls from 0.905 to 0.799.

Compared with FNVLQYVVPEV [EIF3A_Y382], LDLSFYHTSSS [EMD_Y182_P183H_YF] is higher in SH2 binding enrichment: 0.835 for the first, 1 for the second.

First: PLFGEYFTLQI [TP53_Y327_D324Y_YF]
Second: DMGAQYAAASP [ARID1B_Y483]
The SH2 binding enrichment of the first is higher: 0.757 for the first, 0.67 for the second.

First: AAVDTYCRHNY [HLA-DRB1_Y107]
Second: IRKDLYANNVM [ACTA1_Y296]
The SH2 binding enrichment of the first is lower: 0.731 for the first, 1.21 for the second.

Going from SPPILYSFFLD [FCRL6_Y239_YF] to SARFRYLVAEK [LDHB_Y173_M175V], the SH2 binding enrichment falls from 1.21 to 0.811.

Going from CEHRGHLYLAI [TEK_Y897_Y897H] to MSFDRYMAICH [OR2A5_Y123_YF], the SH2 binding enrichment falls from 1.16 to 0.829.

Compared with DYYDLYGGQKF [PTPN11_Y66_E69Q], YIGVTYKNEED [PDGFRA_Y993] is higher in SH2 binding enrichment: 0.86 for the first, 1.35 for the second.

Going from EKQLLYLENKT [FRK_Y132_S133L] to NIQKKYYRAIL [CHD7_Y1217], the SH2 binding enrichment rises from 0.881 to 1.09.

Compared with AGQEDYDRLRS [RHOA_Y66_P71S], WCSNDYLGMSR [ALAS2_Y199] is higher in SH2 binding enrichment: 0.596 for the first, 0.895 for the second.

Going from TVLWRYTGTRP [UGT1A1_Y337] to FQGGTYSKAST [FGG_Y380_YF], the SH2 binding enrichment rises from 0.707 to 0.787.

Compared with SAGSSYSISGI [PAX5_Y179], ICGVSYDEFRF [CFTR_Y512_F508C_YF] is lower in SH2 binding enrichment: 0.852 for the first, 0.838 for the second.

Going from VTAVAYRLAEQ [HK1_Y461] to RPPELYALMSD [ZAP70_Y569_C564R], the SH2 binding enrichment rises from 0.828 to 0.958.

Going from KRAIGHFSATS [FAM120A_Y327_Y327H_YF] to CTTIDYNFMCN [TP53_Y234_H233D_YF], the SH2 binding enrichment rises from 0.852 to 0.874.

Work on KLVQLYVVCTK [BTK_Y461_G462V] yielded an SH2 binding enrichment of 0.881.

Molecular target: c-Src SH2
Experiment: as above

First: PLEGKYEWQEV [CDKN1B_Y74]
Second: AKVKPYVNGTS [IBTK_Y1064]
The SH2 binding enrichment of the first is higher: 3.88 for the first, 0.559 for the second.

Compared with NLTVNYKKNLT [SQOR_Y259_I264T], LHAALYERKLL [TTLL5_Y542] is higher in SH2 binding enrichment: 0.381 for the first, 0.622 for the second.

First: TGSFTYEAVEL [MTMR14_Y462]
Second: VHNLDYYKKTT [FGFR3_Y647]
The SH2 binding enrichment of the first is higher: 0.653 for the first, 0.389 for the second.

Going from HLELNYKEDEF [MME_Y502_Y497H_YF] to ATPSQYMTFLH [DYNC2H1_Y2872_R2871Q], the SH2 binding enrichment rises from 0.697 to 0.75.

Going from FNVLQYVVPEV [EIF3A_Y382] to LDLSFYHTSSS [EMD_Y182_P183H_YF], the SH2 binding enrichment rises from 0.599 to 0.773.

Compared with PLFGEYFTLQI [TP53_Y327_D324Y_YF], DMGAQYAAASP [ARID1B_Y483] is higher in SH2 binding enrichment: 0.394 for the first, 0.63 for the second.

Going from AAVDTYCRHNY [HLA-DRB1_Y107] to IRKDLYANNVM [ACTA1_Y296], the SH2 binding enrichment rises from 0.516 to 0.732.

Compared with SPPILYSFFLD [FCRL6_Y239_YF], SARFRYLVAEK [LDHB_Y173_M175V] is lower in SH2 binding enrichment: 0.74 for the first, 0.516 for the second.

First: CEHRGHLYLAI [TEK_Y897_Y897H]
Second: MSFDRYMAICH [OR2A5_Y123_YF]
The SH2 binding enrichment of the first is higher: 1.21 for the first, 0.859 for the second.

Going from DYYDLYGGQKF [PTPN11_Y66_E69Q] to YIGVTYKNEED [PDGFRA_Y993], the SH2 binding enrichment rises from 0.666 to 1.89.

Compared with EKQLLYLENKT [FRK_Y132_S133L], NIQKKYYRAIL [CHD7_Y1217] is higher in SH2 binding enrichment: 0.467 for the first, 0.898 for the second.

Going from AGQEDYDRLRS [RHOA_Y66_P71S] to WCSNDYLGMSR [ALAS2_Y199], the SH2 binding enrichment rises from 0.554 to 0.642.

Going from TVLWRYTGTRP [UGT1A1_Y337] to FQGGTYSKAST [FGG_Y380_YF], the SH2 binding enrichment rises from 0.588 to 0.657.

Compared with SAGSSYSISGI [PAX5_Y179], ICGVSYDEFRF [CFTR_Y512_F508C_YF] is higher in SH2 binding enrichment: 0.487 for the first, 0.847 for the second.

First: VTAVAYRLAEQ [HK1_Y461]
Second: RPPELYALMSD [ZAP70_Y569_C564R]
The SH2 binding enrichment of the first is lower: 0.782 for the first, 1.23 for the second.

Compared with KRAIGHFSATS [FAM120A_Y327_Y327H_YF], CTTIDYNFMCN [TP53_Y234_H233D_YF] is higher in SH2 binding enrichment: 0.525 for the first, 0.931 for the second.

KLVQLYVVCTK [BTK_Y461_G462V] gave an SH2 binding enrichment of 0.482.

Molecular target: SHP2-C SH2
Experiment: as above

Compared with PLEGKYEWQEV [CDKN1B_Y74], AKVKPYVNGTS [IBTK_Y1064] is higher in SH2 binding enrichment: 0.516 for the first, 0.878 for the second.

Going from NLTVNYKKNLT [SQOR_Y259_I264T] to LHAALYERKLL [TTLL5_Y542], the SH2 binding enrichment rises from 0.482 to 0.835.

First: TGSFTYEAVEL [MTMR14_Y462]
Second: VHNLDYYKKTT [FGFR3_Y647]
The SH2 binding enrichment of the first is higher: 0.768 for the first, 0.556 for the second.

Going from HLELNYKEDEF [MME_Y502_Y497H_YF] to ATPSQYMTFLH [DYNC2H1_Y2872_R2871Q], the SH2 binding enrichment rises from 0.392 to 2.86.

Compared with FNVLQYVVPEV [EIF3A_Y382], LDLSFYHTSSS [EMD_Y182_P183H_YF] is lower in SH2 binding enrichment: 0.963 for the first, 0.701 for the second.

First: PLFGEYFTLQI [TP53_Y327_D324Y_YF]
Second: DMGAQYAAASP [ARID1B_Y483]
The SH2 binding enrichment of the first is lower: 0.629 for the first, 0.647 for the second.

First: AAVDTYCRHNY [HLA-DRB1_Y107]
Second: IRKDLYANNVM [ACTA1_Y296]
The SH2 binding enrichment of the first is higher: 0.777 for the first, 0.381 for the second.

Compared with SPPILYSFFLD [FCRL6_Y239_YF], SARFRYLVAEK [LDHB_Y173_M175V] is lower in SH2 binding enrichment: 1.01 for the first, 0.615 for the second.

Compared with CEHRGHLYLAI [TEK_Y897_Y897H], MSFDRYMAICH [OR2A5_Y123_YF] is lower in SH2 binding enrichment: 1.27 for the first, 0.688 for the second.

Going from DYYDLYGGQKF [PTPN11_Y66_E69Q] to YIGVTYKNEED [PDGFRA_Y993], the SH2 binding enrichment rises from 0.865 to 1.52.

Compared with EKQLLYLENKT [FRK_Y132_S133L], NIQKKYYRAIL [CHD7_Y1217] is higher in SH2 binding enrichment: 0.631 for the first, 1.09 for the second.

First: AGQEDYDRLRS [RHOA_Y66_P71S]
Second: WCSNDYLGMSR [ALAS2_Y199]
The SH2 binding enrichment of the first is lower: 0.657 for the first, 0.773 for the second.

First: TVLWRYTGTRP [UGT1A1_Y337]
Second: FQGGTYSKAST [FGG_Y380_YF]
The SH2 binding enrichment of the first is lower: 0.724 for the first, 1.14 for the second.

Compared with SAGSSYSISGI [PAX5_Y179], ICGVSYDEFRF [CFTR_Y512_F508C_YF] is higher in SH2 binding enrichment: 0.535 for the first, 0.664 for the second.

First: VTAVAYRLAEQ [HK1_Y461]
Second: RPPELYALMSD [ZAP70_Y569_C564R]
The SH2 binding enrichment of the first is lower: 0.604 for the first, 0.895 for the second.

Going from KRAIGHFSATS [FAM120A_Y327_Y327H_YF] to CTTIDYNFMCN [TP53_Y234_H233D_YF], the SH2 binding enrichment rises from 0.66 to 0.661.

With KLVQLYVVCTK [BTK_Y461_G462V] the SH2 binding enrichment was 1.01.
